Key:
[1] = target: human factor H (human) (UniProt P08603); experiment: SPR; human FH conjugated to a CM5 chip; untagged CspZ treated with 100 uM EDTA and dialysed against PBS, one concentration (2 uM in methods and legend, 1 uM in the table's footnote), flow rate 10 ul/min, 25 C, Biacore T200, 1:1 Langmuir model
[2] = target: human complement factor H (human) (UniProt P08603); experiment: SPR; human FH conjugated to a CM5 chip; untreated untagged CspZ flowed in PBS at 10 μl/min, 25 °C; Biacore T200; 1:1 Langmuir model
[3] = target: human factor H (human) (UniProt P08603); experiment: SPR; human FH conjugated to a CM5 chip; untreated (PBS) untagged CspZ at one concentration (2 uM in methods and legend, 1 uM in the table's footnote) flowed in PBS at 30 ul/min, 25 C, Biacore T200, 1:1 Langmuir model
[4] = target: human factor H (human) (UniProt P08603); experiment: SPR; human FH conjugated to a CM5 chip; untreated (PBS) untagged CspZ at one concentration (2 uM in methods and legend, 1 uM in the table's footnote) flowed in PBS at 100 ul/min, 25 C, Biacore T200, 1:1 Langmuir model
[5] = target: human factor H (human) (UniProt P08603); experiment: SPR; human FH conjugated to a CM5 chip; untagged CspZ treated with 100 uM EDTA and dialysed against PBS, one concentration (2 uM in methods and legend, 1 uM in the table's footnote), flow rate 100 ul/min, 25 C, Biacore T200, 1:1 Langmuir model
[6] = target: human complement factor H (human) (UniProt P08603); experiment: SPR; human FH conjugated to a CM5 chip; untagged CspZ treated with 100 μM EDTA and dialysed against PBS, flowed in EDTA-treated PBS (100 μM) at 10 μl/min, 25 °C; 1:1 Langmuir model
[7] = target: human factor H (human) (UniProt P08603); experiment: SPR; human FH conjugated to a CM5 chip; untagged CspZ treated with 100 uM EDTA and dialysed against PBS, one concentration (2 uM in methods and legend, 1 uM in the table's footnote), flow rate 30 ul/min, 25 C, Biacore T200, 1:1 Langmuir model
[8] = target: human factor H (human) (UniProt P08603); experiment: SPR; human FH conjugated to a CM5 chip; untreated (PBS) untagged CspZ at one concentration (2 uM in methods and legend, 1 uM in the table's footnote) flowed in PBS at 10 ul/min, 25 C, Biacore T200, 1:1 Langmuir model
[9] = target: human factor H (human) (UniProt P08603); experiment: SPR; human FH conjugated to a CM5 chip; EDTA-treated, PBS-dialysed untagged CspZB31 then treated with 100 uM zinc (EDTA-Zn), one concentration (2 uM in methods and legend, 1 uM in the table's footnote), flow rate 10 ul/min, 25 C, Biacore T200, 1:1 Langmuir model
[10] = target: human complement factor H (human) (UniProt P08603); experiment: SPR; human FH conjugated to a CM5 chip; EDTA-treated, PBS-dialysed untagged CspZ then incubated with 100 μM zinc, flowed in zinc-treated PBS (100 μM) at 10 μl/min, 25 °C; 1:1 Langmuir model
[11] = target: human factor H (human) (UniProt P08603); experiment: SPR; human FH conjugated to a CM5 chip; EDTA-treated, PBS-dialysed untagged CspZB31 then treated with 100 uM zinc (EDTA-Zn), one concentration (2 uM in methods and legend, 1 uM in the table's footnote), flow rate 100 ul/min, 25 C, Biacore T200, 1:1 Langmuir model
[12] = target: human factor H (human) (UniProt P08603); experiment: SPR; human FH conjugated to a CM5 chip; EDTA-treated, PBS-dialysed untagged CspZB31 then treated with 100 uM zinc (EDTA-Zn), one concentration (2 uM in methods and legend, 1 uM in the table's footnote), flow rate 30 ul/min, 25 C, Biacore T200, 1:1 Langmuir model

| Substance | Kd [1] [nM] | koff [1] [s⁻¹] | kon [1] [M⁻¹ s⁻¹] | Kd [2] [nM] | koff [2] [s⁻¹] | kon [2] [M⁻¹ s⁻¹] | Kd [3] [nM] | koff [3] [s⁻¹] | kon [3] [M⁻¹ s⁻¹] | Kd [4] [nM] | koff [4] [s⁻¹] | kon [4] [M⁻¹ s⁻¹] | Kd [5] [nM] | koff [5] [s⁻¹] | kon [5] [M⁻¹ s⁻¹] | Kd [6] [nM] | koff [6] [s⁻¹] | kon [6] [M⁻¹ s⁻¹] | Kd [7] [nM] | koff [7] [s⁻¹] | other results |
| --- | --- | --- | --- | --- | --- | --- | --- | --- | --- | --- | --- | --- | --- | --- | --- | --- | --- | --- | --- | --- | --- |
| CspZ from Borrelia afzelii VS461, untagged (natural protein) | 480 | 0.004 | 10700 | 370 | 0.0034 | 9420 | 380 | 0.004 | 10800 | 340 | 0.003 | 10500 | 110 | 0.004 | 11100 | 470 | 0.0045 | 10600 | 430 | 0.003 | kon [7]: 9160 M⁻¹ s⁻¹; Kd [8]: 370 nM; koff [8]: 0.004 s⁻¹; kon [8]: 10800 M⁻¹ s⁻¹ |
| CspZ from Borrelia burgdorferi B31, untagged (natural protein) | 3370 | 0.012 | 4560 | 340 | 0.021 | 66600 | 270 | 0.017 | 63200 | 250 | 0.017 | 69200 | 3670 | 0.017 | 4830 | 3050 | 0.012 | 4370 | 3730 | 0.021 | Kd [9]: 620 nM; koff [9]: 0.037 s⁻¹; kon [9]: 60900 M⁻¹ s⁻¹; Kd [10]: 680 nM; koff [10]: 0.035 s⁻¹; kon [10]: 51200 M⁻¹ s⁻¹; Kd [11]: 660 nM; koff [11]: 0.044 s⁻¹; kon [11]: 66600 M⁻¹ s⁻¹; kon [7]: 5790 M⁻¹ s⁻¹; Kd [12]: 570 nM; koff [12]: 0.034 s⁻¹; kon [12]: 61700 M⁻¹ s⁻¹; Kd [8]: 230 nM; koff [8]: 0.016 s⁻¹; kon [8]: 68800 M⁻¹ s⁻¹ |
| CspZ from Borrelia burgdorferi B408, untagged (natural protein) | 480 | 0.007 | 15700 | 540 | 0.0079 | 14100 | 530 | 0.007 | 13600 | 540 | 0.006 | 13200 | 500 | 0.008 | 16700 | 490 | 0.0071 | 13900 | 480 | 0.006 | kon [7]: 13600 M⁻¹ s⁻¹; Kd [8]: 550 nM; koff [8]: 0.008 s⁻¹; kon [8]: 16500 M⁻¹ s⁻¹ |

Reference: paper PMC11773018
